Test results from patent US20110158992A1 (SCHERING, published 2011).

T1: human IL-23R (human, UniProt Q5VWK5 24-353, limits assumed)
T1 construct: also called huIL-23R; human interleukin-23R
T1 sequence: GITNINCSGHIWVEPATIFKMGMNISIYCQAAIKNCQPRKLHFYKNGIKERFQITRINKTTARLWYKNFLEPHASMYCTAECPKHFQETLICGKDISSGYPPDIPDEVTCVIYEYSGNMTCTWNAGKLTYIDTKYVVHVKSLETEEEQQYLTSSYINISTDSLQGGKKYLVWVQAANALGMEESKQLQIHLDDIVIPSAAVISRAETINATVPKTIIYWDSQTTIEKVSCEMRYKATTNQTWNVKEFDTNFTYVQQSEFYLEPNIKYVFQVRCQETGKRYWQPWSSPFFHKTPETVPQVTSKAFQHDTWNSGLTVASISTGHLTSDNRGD

B1: rat anti-human IL-23R antibody 8B10 (antibody, rat IgG2a, V domains shown)
VH: EVKLVESGGGLEQPKGSLKLSCTVSGFDFNSYGMSWVRQAPGKGLDLVADINSKSYNYATYYADSVKDRFTISRDDSQSMVYLEMDNLKTEDTALYYCTVHHSDYFEYWGQGVMVTVSS
VL: DIQMTQSPASLSASLGETVSIECLASEDIYNNLAWYQQKPGKSPQLLIYHASSLQDGVPSRFSGSGSGTQYSLKINSLESEDAATYFCLQDSEYPPTFGGGTKLELKR
notes: also called r8B10
B2: chimeric 8B10 full-length antibody (antibody, V domains shown)
VH: EVKLVESGGGLEQPKGSLKLSCTVSGFDFNSYGMSWVRQAPGKGLDLVADINSKSYNYATYYADSVKDRFTISRDDSQSMVYLEMDNLKTEDTALYYCTVHHSDYFEYWGQGVMVTVSS
VL: DIQMTQSPASLSASLGETVSIECLASEDIYNNLAWYQQKPGKSPQLLIYHASSLQDGVPSRFSGSGSGTQYSLKINSLESEDAATYFCLQDSEYPPTFGGGTKLELKR
notes: also called chim8B10
B3: full-length chimeric 8B10 antibody, VL N31T (antibody, V domains shown)
VH: EVKLVESGGGLEQPKGSLKLSCTVSGFDFNSYGMSWVRQAPGKGLDLVADINSKSYNYATYYADSVKDRFTISRDDSQSMVYLEMDNLKTEDTALYYCTVHHSDYFEYWGQGVMVTVSS
VL: DIQMTQSPASLSASLGETVSIECLASEDIYTNLAWYQQKPGKSPQLLIYHASSLQDGVPSRFSGSGSGTQYSLKINSLESEDAATYFCLQDSEYPPTFGGGTKLELKR
notes: also called N31T variant

What was measured:
human IL-23R [1] = target: T1, human IL-23R; test: KinExA
Protocol: (§1) The equilibrium dissociation constants (Kd) for anti human IL-23R antibodies are determined using the KinExA. 3000 instrument. Sapidyne Instruments Inc., Boise Id., USA. KinExA uses the principle of the Kinetic Exclusion Assay method based on measuring the concentration of uncomplexed antibody in a mixture of antibody, antigen and antibody-antigen complex. The concentration of free antibody is measured by exposing the mixture to a solid-phase immobilized antigen for a very brief period of time. In practice, this is accomplished by flowing the solution phase antigen-antibody mixture past antigen-coated particles trapped in a flow cell. Data generated by the instrument are analyzed using custom software. Equilibrium constants are calculated using a mathematical theory based on the lowing assumptions: [0177] 1. The binding follows the reversible binding equation for equilibrium: […]
PMMA particles (Sapidyne, Cat No. 440198) are coated with biotinylated IL-23R (or a fragment thereof, such as the extracellular domain) according to Sapidyne “Protocol for coating PMMA particles with biotinylated ligands having short or nonexistent linker arms.” EZ-link TFP PEO-biotin (Pierce, Cat. No. 21219) is used to make biotinylated IL-23R, as per the manufacturer's recommendations (Pierce bulletin 0874).

human IL-23R [2] = target: T1, human IL-23R; test: BIAcore SPR, antibody immobilised
Protocol: (§2) BIAcore® label-free interaction analysis system determinations are performed essentially as described at Example 4 of U.S. Patent Application Publication No. 2007/0048315, which is hereby incorporated by reference. Briefly, ligands (anti-IL-23R mAbs) are immobilized on a BIAcore® label-free interaction analysis system CM5 sensor chip using standard amine-coupling procedure. Kinetic constants for the various interactions are determined using BIAevaluation software 3.1. The Kd is determined using the calculated dissociation and association rate constants.

human IL-23R [3] = target: T1, human IL-23R; test: BIAcore SPR, antibody immobilised; remark: listed apart in the source
Protocol: as §2
Several sequence variants intended to increase the chemical stability of hu8B10-b were produced to evaluate their effects on binding affinity. Kd values are provided at Table 3. Binding to human IL-23R was determined using the BIAcore® label-free interaction analysis system (surface plasmon resonance), essentially as described in Example 4 (supra). Chimeric forms, designated as “chim,” refers to rat variable domains linked to human IgG1 heavy chain and human kappa light chain constant domains, e.g., as presented at SEQ ID NOs: 16 and 17, respectively, or as at SEQ ID NOs: 22 and 23, respectively. Sequences for heavy and light chain variable domains are provided at FIGS. 1 and 2, and in the Sequence Listing (as described at Table 4). Antibodies incorporate the sequence changes recited in the table (“Variant(s)”) for the respective heavy and light chains. Data arc presented as mean±standard deviation for multiple determinations, and without error estimates for single determinations.

human IL-23R [4] = target: T1, human IL-23R; test: KinExA, full-length chimeric antibody; original sequence (no N31T)
Protocol: as §1
(§3) PMMA particles (Sapidyne, Cat No. 440198) are coated with biotinylated IL-23R (or a fragment thereof, such as the extracellular domain) according to Sapidyne “Protocol for coating PMMA particles with biotinylated ligands having short or nonexistent linker arms.” EZ-link TFP PEO-biotin (Pierce, Cat. No. 21219) is used to make biotinylated IL-23R, as per the manufacturer's recommendations (Pierce bulletin 0874). […]

human IL-23R [5] = target: T1, human IL-23R; test: KinExA, full-length chimeric antibody
Protocol: as §1, §3

human IL-23R [6] = target: T1, human IL-23R; test: KinExA, full-length chimeric antibody; N31T variant, full-length chimeric
Protocol: as §1, §3

Binder	Kd (human IL-23R [1]) [nM]	Kd (human IL-23R [2]) [nM]	Kd (human IL-23R [3]) [nM]	Kd (human IL-23R [4]) [nM]	fold improvement in binding affinity against the original sequence (human IL-23R [5]) [fold]	Kd (human IL-23R [6]) [pM]
B1	0.042	~0.3	0.27	–	–	–
B2	–	–	0.345	0.025	–	–
B3	–	–	–	–	3	8
